Data on 3 substances can be found in patent publication US20240084003A1.

For assay [1], the target named is human CD22 (full length, on cells) (human) (UniProt P20273). Put plainly: FACS on CHO-K1-human CD22 clone 1D9.
For assay [2] the target is unchanged. In words: FACS on CHO-K1-human CD22 clone 1G5.
Assay [3] shares this target. In words: FACS on CHO-K1-human CD22 clone 2C4.
The target is the same in assay [4]. In words: FACS on Raji cells, control of the HA22 row.
The target is the same in assay [5]. In words: FACS on Raji cells, control of the m971 row.
In assay [6] the target is monkey CD22 on HEK293T-monkey CD22 cells (monkey). Put plainly: FACS, HEK293T-monkey CD22 cells.
Chain of monkey CD22 on HEK293T-monkey CD22 cells (monkey) (chain, as listed by the source limits assumed): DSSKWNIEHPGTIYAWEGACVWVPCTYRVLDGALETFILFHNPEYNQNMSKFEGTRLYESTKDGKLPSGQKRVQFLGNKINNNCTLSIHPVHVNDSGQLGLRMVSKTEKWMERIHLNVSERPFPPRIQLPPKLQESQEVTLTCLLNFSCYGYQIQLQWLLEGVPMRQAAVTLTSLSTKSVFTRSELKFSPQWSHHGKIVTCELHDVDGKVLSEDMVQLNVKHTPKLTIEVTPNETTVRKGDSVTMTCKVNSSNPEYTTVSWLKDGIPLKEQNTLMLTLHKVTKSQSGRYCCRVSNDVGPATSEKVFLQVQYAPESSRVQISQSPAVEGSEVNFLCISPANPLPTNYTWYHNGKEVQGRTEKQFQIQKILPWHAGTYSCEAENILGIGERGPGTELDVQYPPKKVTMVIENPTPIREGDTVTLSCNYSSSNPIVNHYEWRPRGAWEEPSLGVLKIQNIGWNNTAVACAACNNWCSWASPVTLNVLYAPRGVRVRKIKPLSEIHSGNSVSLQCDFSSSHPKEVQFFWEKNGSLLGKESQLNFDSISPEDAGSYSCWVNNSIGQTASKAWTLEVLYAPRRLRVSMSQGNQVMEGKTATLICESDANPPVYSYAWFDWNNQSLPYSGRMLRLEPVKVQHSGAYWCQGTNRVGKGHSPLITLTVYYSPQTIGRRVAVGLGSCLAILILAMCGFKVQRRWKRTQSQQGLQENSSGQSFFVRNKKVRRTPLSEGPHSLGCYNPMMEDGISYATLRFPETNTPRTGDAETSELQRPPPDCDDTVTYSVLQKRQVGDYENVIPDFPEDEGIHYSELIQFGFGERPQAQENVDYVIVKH
Assay [7] concerns the target human CD22, endogenous on Raji cells (human) (UniProt P20273). In words: FACS, Raji cells.
For assay [8], the target named is human CD22, full length, on CHO-K1-human CD22 2C4 cells (human) (UniProt P20273). In words: FACS, CHO-K1-human CD22 2C4 cells. On the technique in general: A flow cytometer gives signals particle by particle.
Chain of human CD22, full length, on CHO-K1-human CD22 2C4 cells (human) (P20273 20-847 limits assumed): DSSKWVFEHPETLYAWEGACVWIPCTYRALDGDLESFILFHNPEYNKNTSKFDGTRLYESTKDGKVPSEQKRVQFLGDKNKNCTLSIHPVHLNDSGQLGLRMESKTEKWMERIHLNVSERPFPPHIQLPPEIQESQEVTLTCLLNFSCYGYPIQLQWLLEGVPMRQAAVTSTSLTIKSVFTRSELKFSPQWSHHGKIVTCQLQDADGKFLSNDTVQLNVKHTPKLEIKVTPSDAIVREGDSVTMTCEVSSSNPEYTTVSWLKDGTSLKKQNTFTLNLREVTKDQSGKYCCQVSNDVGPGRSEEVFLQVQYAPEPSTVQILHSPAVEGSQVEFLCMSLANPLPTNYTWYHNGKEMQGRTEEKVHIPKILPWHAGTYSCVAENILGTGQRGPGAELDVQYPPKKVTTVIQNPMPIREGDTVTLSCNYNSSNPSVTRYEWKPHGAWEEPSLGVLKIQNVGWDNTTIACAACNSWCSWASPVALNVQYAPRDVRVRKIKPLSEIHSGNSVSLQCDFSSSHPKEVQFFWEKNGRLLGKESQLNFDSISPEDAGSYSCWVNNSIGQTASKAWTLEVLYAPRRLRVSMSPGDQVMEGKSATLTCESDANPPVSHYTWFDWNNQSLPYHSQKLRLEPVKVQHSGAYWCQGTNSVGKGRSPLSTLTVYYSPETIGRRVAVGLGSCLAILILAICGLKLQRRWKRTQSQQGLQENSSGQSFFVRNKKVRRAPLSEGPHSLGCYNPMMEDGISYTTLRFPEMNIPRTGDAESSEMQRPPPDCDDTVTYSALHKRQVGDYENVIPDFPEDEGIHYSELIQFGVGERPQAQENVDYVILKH

Chain of human CD22 (full length, on cells) (human) (P20273 20-847 limits assumed): as above
Chain of human CD22, endogenous on Raji cells (human) (P20273 20-847): as the sequence (P20273 20-847 limits assumed) above

Take IgG subtype control (antibody): the Cell mean fluorescence intensity in assay [1], in assay [2] and in assay [3] was 66 MFI in each case. The Cell mean fluorescence density in assay [4] and in assay [5] was 44 MFI throughout.

anti-hel-hIgG1 (antibody) showed a Maximum mean fluorescence intensity in assay [6] of 129 MFI.

Take “anti-hel-hIgG1 (negative control antibody against chicken egg lysozyme)”: the Maximum mean fluorescence intensity came to 564 MFI in assay [7] and 150 MFI in assay [8].
